# In US5856125:
# Target: T1, ERF (Homo sapiens) (UniProt P50548)
# T1 sequence: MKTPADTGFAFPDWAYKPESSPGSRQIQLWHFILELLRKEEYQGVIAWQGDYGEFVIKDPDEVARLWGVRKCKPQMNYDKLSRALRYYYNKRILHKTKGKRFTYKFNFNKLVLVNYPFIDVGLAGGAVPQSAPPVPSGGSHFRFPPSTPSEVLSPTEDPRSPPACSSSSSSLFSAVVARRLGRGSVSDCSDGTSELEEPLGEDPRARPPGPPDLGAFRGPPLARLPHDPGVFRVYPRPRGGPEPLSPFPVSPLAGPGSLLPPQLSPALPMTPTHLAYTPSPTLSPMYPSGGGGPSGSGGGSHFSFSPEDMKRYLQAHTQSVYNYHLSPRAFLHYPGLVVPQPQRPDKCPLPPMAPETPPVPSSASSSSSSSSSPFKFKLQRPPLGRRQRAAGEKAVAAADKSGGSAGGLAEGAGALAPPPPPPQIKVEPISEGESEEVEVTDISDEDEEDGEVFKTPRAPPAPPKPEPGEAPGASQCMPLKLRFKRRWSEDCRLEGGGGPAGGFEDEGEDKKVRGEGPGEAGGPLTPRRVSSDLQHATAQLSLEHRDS
# Assay: cell_activity
# Conditions: HeLa CAT reporter; values over 30 set to 30
substance,measurement,value
ETS2 promoter -394 to +125,activity (fold repression),> 30
